From paper PMC4428071, “Structural basis for epitope masking and strain specificity of a conserved epitope in an intrinsically disordered malaria vaccine candidate” (Scientific Reports, 2015)

How the values were obtained:
[1] = target: mouse monoclonal antibody 6D8 (mouse); assay: SPR
6D8 scFv (mouse) = assay: ITC; Microcal ITC-200; MSP2 or peptide titrated into 6D8 scFv or 6D8 IgG
Chain of 6D8 scFv (mouse) (heavy, as listed by the source, chain 1 of 2): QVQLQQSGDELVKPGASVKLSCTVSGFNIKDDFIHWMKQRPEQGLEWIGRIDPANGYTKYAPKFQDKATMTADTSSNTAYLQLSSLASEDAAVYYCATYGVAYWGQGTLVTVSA
Chain of 6D8 scFv (mouse) (light, as listed by the source, chain 2 of 2): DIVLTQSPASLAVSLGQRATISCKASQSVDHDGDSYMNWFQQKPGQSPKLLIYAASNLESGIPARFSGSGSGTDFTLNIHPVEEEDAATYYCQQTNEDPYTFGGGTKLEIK

Chain of mouse monoclonal antibody 6D8 (mouse) (heavy, as listed by the source, chain 1 of 2): as the sequence (heavy, as listed by the source, chain 1 of 2) above
Chain of mouse monoclonal antibody 6D8 (mouse) (light, as listed by the source, chain 2 of 2): as the sequence (light, as listed by the source, chain 2 of 2) above

Binder | Kd [1] [nM] | Kd (6D8 scFv (mouse)) [nM]
Ac-FINNAYNMSIRRS-NH2 [MSP2_(11-23)] | 6 | 
Ac-NNAYNMSIRR-NH2 [MSP2_(13-22)] | 14 | 

More lines, now with the values ahead:

Kd [1] [nM] | Kd (6D8 scFv (mouse)) [nM] | Binder
34 |  | Ac-AYNMSIRRS-NH2 [MSP2_(15-23)]
6 | < 5 | Ac-NAYNMSIRR-NH2 [MSP2_(14-22)]
16 |  | Ac-NAYNMSIRRS-NH2 [MSP2_(14-23)]
87 |  | Ac-AYNMSIRR-NH2 [MSP2_(15-22)]
